Assays:
[1] = test system: AR42J cells; assay: Calcium imaging with fluo4-AM; assay type: cell-based; conditions: for block of CCK-mediated calcium release: inhibitor 30 min prior and during imaging: 1 μM PD173074, 10 μM L-364,718, 10 μM U73122, 100 μM 2-APB; for block of calcium release elicited by FGF21: 1 μg/ml FGF21, inhibitor 30 min prior and during imaging: 1 μM PD173074, 10 μM L-364,718, 10 μM U73122, 100 μM 2-APB; for intracellular calcium release (ΔF/F0): 1 μg/ml FGF21 or 100 pM CCK
Protocol: AR42J cells were pre-loaded with 1 μM of the calcium indicator fluo4-AM (Life Technologies) for 30 minutes at 37° C. Where indicated, 1 μM PD173074 (Sigma), 10 μM L-364,718 (Tocris Bioscience), 10 μM U73122 (Tocris Bioscience) or 100 μM 2-APB (Tocris Bioscience) were added during fluo4-AM preloading and to the imaging medium (DMEM without phenol red). Cells were imaged on a BD Pathway 855 bioimager with a 10× objective. Vehicle, FGF21 (1 μg/ml) and CCK (100 pM) were delivered 10 seconds after baseline fluorescence acquisition by an automated fluid delivery mechanism and imaged for a total time of 2 minutes. Calcium release was calculated using Image J as ΔF/F0, where ΔF is the raw fluorescent signal (F) from cells minus their background fluorescence (calculated from a region where no cells and fluorescent signal was expected), and F0 was the average of the first 6 frames before the compound was added. Sample size (n) corresponds to the number of cell clusters measured with each cell cluster containing 5-20 cells.

[2] = test system: eIF4E-BP1; assay: Western blot of pancreatic phospho-eIF4E-BP1; assay type: in vivo, mouse; conditions: mice, 1 mg/kg FGF21 or CCK for 15 min
Protocol: (§1) Pancreas was homogenized using Fastprep-24 lysing matrix bead tubes (MP Biomedicals) in 1×RIPA buffer (Cell Signaling Technology) supplemented with a cocktail of protease and phosphatase inhibitors (Roche). Protein lysate concentrations were measured using the DC Protein Assay (Biorad). Equal protein amounts were loaded and electrophoresed in a […] SDS-polyacrylamide gel (Biorad) and transferred to nitrocellulose membranes (Biorad). Membranes were blocked with 5% BSA in TBST for 1 hour. Probing of membranes with antibodies against FGF21, amylase and lipase (Santa Cruz); β-actin (Abcam); p-EIF2α, p-ERK1/2, and p-eIF4E-BP1 (Cell Signaling Technology) was performed overnight at 4° C. Membranes were then incubated with HRP-conjugated secondary antibodies (Cell Signaling Technology) against the primary antibody's host species for 1 hour. Membranes were developed using the Super Signal West Chemiluminescence Kit (Thermo) and signal was detected with an ImageQuant LAS4000 luminescent imager (General Electric). Quantification was done using Image J.

[3] = test system: PLCβ3; assay: Western blot of pancreatic phospho-PLCβ; assay type: in vivo, mouse; conditions: WT mice, 5 μg/kg CCK (i.p.) for 15 min
Protocol: as §1
(§2) Activation of the CCK-A receptor leads to the phosphorylation of the b isoform of PLC, calcium release, and subsequent secretion. In contrast, FGF receptors activate the γ isoform. To explore whether FGF21 and CCK have different activation profiles for the PLC isoforms, we treated WT mice with vehicle, FGF21, or CCK for 15 min. […]

[4] = test system: pancreatic protein synthesis; assay: Pancreatic protein synthesis, 3H-phenylalanine flooding dose method; assay type: in vivo, mouse; conditions: mice, 1 mg/kg FGF21 or 5 mg/kg CCK for 2 hr
Protocol: Pancreatic protein synthesis was measured by the flooding dose method using ^3H-phenylalanine (Sans, et al., American journal of physiology 287, G667-675, 2004).

[5] = test system: ERK1/2; assay: Western blot of pancreatic phospho-ERK1/2; assay type: in vivo, mouse; conditions: for ERK1/2 phosphorylation in pancreas (FIG. 4F): WT mice, 1 mg/kg FGF21 or 5 μg/kg CCK (i.p.) for 15 min; for ERK1/2 phosphorylation in pancreas (FIG. 3B): mice, 1 mg/kg FGF21 or 5 mg/kg CCK for 15 min
Protocol: as §1

[6] = test system: ad-lib fed WT mice; assay: FGF21 protein levels in pancreatic juice and plasma after CCK treatment; assay type: in vivo, mouse; conditions: 15 min CCK treatment vs basal
Excerpt: (§3) Fgf21-knockout (KO) mice (Potthoff, et al., Proc Natl Acad Sci USA 106, 10853-10858, 2009), Fgf21-transgenic (Tg) mice (Inagaki, et al., Cell Metab 5, 415-425, 2007), KLB-T and WT littermates were maintained on a C57Bl/6J background. β-Klotho-KO and heterozygous littermates were kept on a mixed C57BL/6J; 129/Sv background (Ding, et al., Cell Metab 16, 387-393, 2012). All mice were housed in a pathogen-free facility and fed a standard chow diet (Harlan Teklad 2916). For fasting refeeding experiments, mice were fasted overnight and then refed for 2 hours with standard chow diet. Acute pancreatitis was induced by administration of seven hourly intraperitoneal injections of 50 μg/kg cerulein (Sigma), whereas mice in the control group were injected with saline. FGF21 in plasma was measured using a mouse FGF21 ELISA kit (Biovendor). Male mice were used for all experiments.
(§4) Mice were injected with vehicle (10 mM Na2HPO4, 2% [w/v] glycerol, pH 7.6) or 1 mg/kg human recombinant FGF21 (Novo Nordisk) subcutaneously twice per day for two consecutive days. Mice were fasted for 6 hours, and pancreatic juice was collected for 15 minutes. The final injection of vehicle or FGF21 was given 1 hour prior to pancreatic juice collection.

[7] = test system: secretin; assay: Blood concentration of secretin; assay type: in vivo, mouse; conditions: mice treated with FGF21
[8] = test system: PLCγ1; assay: Western blot of pancreatic phospho-PLCγ; assay type: in vivo, mouse; conditions: WT mice, 1 mg/kg FGF21 for 15 min
Protocol: as §1, §2

[9] = test system: Female Swiss Webster mice; assay: ERCP-induced pancreatitis model, histological grading of pancreas; assay type: in vivo, mouse; conditions: 1 mg/kg FGF21, 4 subcutaneous injections
Protocol: To evaluate if FGF21 confers a beneficial effect against ERCP-induced pancreatitis, a preclinical study was performed in an established rodent model of ERCP that develops pancreatitis 24 hours after ERCP. Female Swiss Webster mice were treated with either 4 subcutaneous injections of vehicle or 1 mg/kg FGF21 in the following way: 1 injection the day prior to ERCP, 2 injections the day of the ERCP procedure, and 1 injection the day following ERCP. Mice were subjected to the ERCP procedure, which consisted of a high-pressure infusion of a radiocontrast agent through the pancreatic duct.

[10] = test system: Fgf21-transgenic (Tg) mice; assay: Cerulein-induced pancreatitis (CIP), ER stress markers; assay type: in vivo, mouse; conditions: chronic FGF21 via liver-specific transgene, supraphysiologic circulating levels; cerulein 50 μg/kg, seven hourly i.p. injections
Excerpt: as §3, with “experiments. […]” for “experiments.”
Pancreas was homogenized using Fastprep-24 lysing matrix bead tubes (MP Biomedicals) in 1×RIPA buffer (Cell Signaling Technology) supplemented with a cocktail of protease and phosphatase inhibitors (Roche). Protein lysate concentrations were measured using the DC Protein Assay (Biorad). […] Membranes were developed using the Super Signal West Chemiluminescence Kit (Thermo) and signal was detected with an ImageQuant LAS4000 luminescent imager (General Electric). Quantification was done using Image J.

[11] = test system: Fgf21-KO mice; assay: H&E staining of pancreas, eosinophilic area fraction; assay type: in vivo, mouse; conditions: 1 mg/kg recombinant FGF21 twice per day for two consecutive days
Protocol: as §4
Mouse pancreas was fixed in 10% neutral buffered formalin overnight and then paraffin embedded, sectioned and hematoxylin and eosin stained. For fresh frozen histology, the pancreas was quickly dissected, snap frozen in cooled isopentane and sectioned at 14-16 μm. The sections were then fixed in 10% neutral buffered formalin for 15 min at 4° C., washed 3 times in 1×PBS and mounted with Vectashield mounting medium with DAPI (Vector Laboratories). Images were acquired with a Zeiss Axioscan Z1 slide scanner at a 20× magnification. Quantification of the eosinophilic area was performed using Image J.

[12] = test system: Klb^fl/fl and Klb^Cela1−/− mice; assay: Pancreatic juice collection: flow rate and amylase levels; assay type: in vivo, mouse; conditions: 1 mg/kg FGF21 for 2 consecutive days
Protocol: as §4
To explore whether FGF21 also acts directly on pancreatic acinar cells in vivo, we generated an inducible acinar cell-specific β-Klotho (Klb) knockdown mouse model in which Cre recombinase expression was under the control of a modified estrogen receptor and the elastase promoter. Efficient knockdown of Klb expression following tamoxifen administration was confirmed in floxed Klb mice carrying the Cre allele (Klb^Cela1−/−). There was no change in plasma FGF21 concentrations in Klb^Cela1−/− mice under fasted conditions. Similar to the Fgf21 KO mice, the Klb^Cela1−/− mice had increased zymogen granule density and pancreatic digestive enzyme concentrations. To test whether FGF21 acts directly on pancreatic acinar cells to stimulate secretion, Klb^fl/fl and Klb^Cela1−/− mice were treated with either vehicle or FGF21 and pancreatic juice collected for 15 min. […] Thus, the basis for the remaining effect of FGF21 on pancreatic juice flow rate requires further investigation.

[13] = test system: mouse primary acinar cells; assay: Cell secretion assay, amylase secretion; assay type: cell-based; conditions: 1 μg/mL FGF21 for 30 min
Protocol: Primary acinar cells were prepared by modification of a published protocol (Williams, et al., The American journal of physiology 235, 517-524, 1978). Briefly, mice were sacrificed by decapitation followed by dissection and washing of the pancreas in 1×PBS. Pancreas digestion medium (0.75 mg/ml collagenase type XI-S [Sigma], 0.1 mg/ml soybean trypsin inhibitor [Sigma], 1% BSA in DMEM) was injected into the pancreatic parenchyma with a 30 g syringe. Pancreas was then incubated in digestion medium for 20-40 minutes with constant mixing using serological pipets of decreasing diameters. Cells were filtered through a 100 μm strainer and washed 3 times with incubation medium (0.1 mg/ml soybean trypsin inhibitor, 1% BSA in DMEM) via centrifugation at 50×g for 3 minutes per wash. Cells were plated and allowed to recover for 2 hours in incubation medium at 37° C.
Primary acinar and AR42J cells were treated with vehicle, FGF21 (1 μg/ml for both primary acinar cells and AR42J) or CCK (10 pM for primary acinar cells and 100 pM for AR42J cells [Phoenix Pharmaceuticals]) for 30 minutes at 37° C. Amylase levels in both the cell medium and cells were analyzed using an Amylase Assay Kit (Abcam).

[14] = test system: Fgf21-KO mice; assay: Western blot of pancreatic amylase and lipase levels; assay type: in vivo, mouse; conditions: 1 mg/kg recombinant FGF21 twice per day for two consecutive days
Protocol: as §4
as §1, with “Membranes were then incubated with HRP-conjugated secondary antibodies (Cell Signaling Technology) against the primary antibody's host species for 1 hour.” left out

[15] = Klb^Cela1−/− mice, juice collected for 15 min

Row | Molecule | block of CCK-mediated calcium release ([1]; 100 pM CCK) | block of calcium release elicited by FGF21 [1] | intracellular calcium release (ΔF/F0) [1] | phosphorylation of eIF4E-BP1 in pancreas [2] | 3H-phenylalanine incorporation into pancreatic protein (pancreatic protein synthesis) [4] | ERK1/2 phosphorylation in pancreas (FIG. 4F) [5] | ERK1/2 phosphorylation in pancreas (FIG. 3B) [5] | further results
1 | NCCOB(c1ccccc1)c1ccccc1 [2-APB] | blocked | blocked | – | – | – | – | – | –
2 | CN1C(=O)[C@@H](NC(=O)c2cc3ccccc3[nH]2)N=C(c2ccccc2)c2ccccc21 [L-364,718] | blocked | not | – | – | – | – | – | –
3 | CCN(CC)CCCCNc1ncc2cc(-c3cc(OC)cc(OC)c3)c(NC(=O)NC(C)(C)C)nc2n1 [PD173074] | not | blocked | – | – | – | – | – | –
4 | COc1ccc2c(c1)CC[C@@H]1[C@@H]2CC[C@]2(C)[C@@H](NCCCCCCN3C(=O)C=CC3=O)CC[C@@H]12 [U73122] | blocked | blocked | – | – | – | – | – | –
5 | cholecystokinin [CCK] | – | – | triggered intracellular calcium release | increased | significantly increased | induced | induced | time to peak calcium levels after treatment ([1]; 100 pM CCK): ≤ 30 s; phosphorylation of PLCβ in pancreas [3]: induced; change of FGF21 in the blood [6]: without any change; increase in the concentration of FGF21 in the pancreatic juice [6]: 3 fold
6 | fibroblast growth factor 21 (protein, UniProt Q9NSA1 29-209, looked up, human recombinant FGF21 from Novo Nordisk, the native form of the human FGF21) Fibroblast growth factor 21: HPIPDSSPLLQFGGQVRQRYLYTDDAQQTEAHLEIREDGTVGGAADQSPESLLQLKALKPGVIQILGVKTSRFLCQRPDGALYGSLHFDPEACSFRELLLEDGYNVYQSEAHGLPLHLPGNKSPHRDPAPRGPARFLPLPGLPPALPEPPGILAPQPPDVGSSDPLSMVGPSQGRSPSYAS | – | – | triggered intracellular calcium release | no effect | no significant effect | induced | induced | time to peak calcium levels after treatment ([1]; 1 μg/ml FGF21): 60 to 120 s; blood concentrations of secretin [7]: did not increase; phosphorylation of PLCγ in pancreas [8]: induced; edema after ERCP, histological grading [9]: decreased; inflammation after ERCP, histological grading [9]: decreased; ER stress parameters (p-eIF2α, Atf4, Chop, Bip mRNA) in response to CIP [10]: suppressed; pancreatic eosinophilic area fraction [11]: decreased the pancreatic eosinophilic area fraction in Fgf21-KO mice to wild type (WT) levels; effect on digestive enzyme secretion (amylase in pancreatic juice) in Klb^Cela1−/− mice [12, 15]: absent; effect on pancreatic juice flow rate in Klb^Cela1−/− mice [12, 15]: significantly reduced but not eliminated; digestive enzyme secretion into pancreatic juice ([12]; control mice): stimulate; pancreatic juice flow ([12]; control mice): stimulate; amylase (digestive enzyme) secretion from acinar cells [13]: Induce Pancreatic Digestive Enzyme Secretion; pancreatic digestive enzyme levels (amylase, lipase), immunoblot [14]: reduction
